± gives the standard deviation of the averaged measurements.
System: ATP
Assay: switch fluorescence ratio, 500 uM ATP over buffer (Cy3 cluster intensity, sum of 5 cycles each) (fold (ratio)); higher = stronger signal-on switching upon ATP binding; sequences stand for … in TCGTCGGCAGCGTCAGATGTGTATAAGAGACAGTTTTTTTTTTTTTTTTTTTTTTTTT…TC
Conditions: aptamer strand: ATP DNA aptamer (quencher-CACCTGGGGGAGTATTGCGGAGGAAGG + anchor), 100 nM annealed; ATP concentration: 500 uM
Procedure, shortened: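 Clusters with intensities outside 100-1000 RFU were excluded. The remaining Cy3-labelled switching-strand clusters on a modified Illumina MiSeq flow-cell had been annealed to 100 nM quencher-labelled ATP aptamer and imaged in selection buffer, then after 15 min with 500 uM ATP at 22 °C, for five cycles separated by NaOH stripping and re-annealing. The fluorescence ratio, averaged per switch-domain sequence, is each cluster's summed target-cycle Cy3 intensity over its summed buffer-cycle Cy3 intensity.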
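Note: ATP exposure 15 min at 22 °C before imaging.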

Row | Sequence | switch fluorescence ratio
1 | GTTAACCAGC | 1.05 ± 0.016
2 | ATCTCACAGA | 0.989 ± 0.025
3 | AAGGGGGTGT | 0.965 ± 0.026
4 | AAACGTGGGG | 1.01 ± 0.066
5 | TTCCGGCAAA | 1.5 ± 0.7
6 | ATGATTAGGA | 0.987 ± 0.037
7 | TGTGTAATTG | 1.01 ± 0.032
8 | ATGCGTATCC | 1 ± 0.034
9 | TCAATGTTTT | 0.9846 ± 0.0031
10 | TCCATACAAG | 0.983 ± 0.055
11 | CATGGAGTGT | 1.01 ± 0.026
12 | GGGCTATTAT | 1.02 ± 0.081
13 | AGGTCGGGGG | 0.988 ± 0.029
14 | TGGGAAGGCA | 1 ± 0.025
15 | GGGGGCTTGA | 0.954 ± 0.022
16 | GTACGCGGAC | 1.07 ± 0.022
17 | AGTTTCGGGC | 0.974 ± 0.033
18 | TTTCGGTCAC | 0.983 ± 0.0036
19 | CGGCACCACA | 1.08 ± 0.015
20 | GGGGGAAGTA | 1.041 ± 0.0027
21 | CAAAGTGTGG | 0.989 ± 0.054
22 | CTTCTGAGGG | 1.02 ± 0.012
23 | GCTGTAACTG | 1.08 ± 0.017

Row | Sequence | switch fluorescence ratio
24 | GGCAGTATTT | 1.0371 ± 0.00098
25 | CATTGATGTG | 1 ± 0.011
26 | TTGTATAAGA | 1.003 ± 0.0088
27 | GGGGACTGGT | 1 ± 0.043
28 | GTTGTCTCCA | 0.985 ± 0.015
29 | TGAAAATGCG | 1.01 ± 0.057
30 | GCGGGTTTGG | 1.01 ± 0.018
31 | CGGTCGATCC | 1 ± 0.023
32 | CACTAATTTT | 1.03 ± 0.019
33 | TACTTCATTT | 1.03 ± 0.041
34 | CGGCGTCGGG | 1 ± 0.032
35 | AAAATGTAGG | 0.957 ± 0.03
36 | TGAGGCCTAG | 1.02 ± 0.056
37 | TATATGGAAG | 0.984 ± 0.03
38 | GAGTATAGAT | 1.001 ± 0.0034
39 | CCTGGTCGGC | 1.02 ± 0.035
40 | ACTACCCCAA | 1.94 ± 0.14
41 | TAGCTGAGAC | 1.162 ± 0.006
42 | AAACCCGGGA | 1.04 ± 0.058
43 | GGCTCATTGA | 0.984 ± 0.029
44 | GAAGGTGGTG | 0.961 ± 0.032
45 | AGGGTCCGAG | 1.001 ± 0.0045
46 | TGCTCTACGG | 1 ± 0.018

Row | Sequence | switch fluorescence ratio
47 | CGTAGGGTTG | 0.974 ± 0.057
48 | TGGAGCCAGT | 1.01 ± 0.041
49 | CCATTTGTTG | 0.971 ± 0.02
50 | TATTTAGGCG | 0.99 ± 0.064
51 | CTGAGGAAGT | 0.9908 ± 0.0088
52 | TTTCAAAACA | 1.0474 ± 0.00015
53 | TAAAGATTTT | 1.01 ± 0.041
54 | TATGTTAGTT | 1.01 ± 0.019
55 | AATTCACGTT | 1.17 ± 0.19
56 | CTGCAACTAA | 2.27 ± 0.054
57 | GGTAGAAGCG | 1.02 ± 0.026
58 | ATGACGCTTT | 1.02 ± 0.022
59 | GACTAAAATG | 1.02 ± 0.019
60 | TAAAATATGG | 1.06 ± 0.11
61 | TCGGGGGGGT | 1.06 ± 0.19
62 | TAGCAAGTG | 1.04 ± 0.041
63 | GGTAAATAAG | 0.961 ± 0.018
64 | ACGATGGGAG | 1.02 ± 0.021
65 | GCTATAGGTG | 1.27 ± 0.057
66 | ATGAGGGTCC | 1.1 ± 0.032
67 | TACCCGGTTT | 0.999 ± 0.026
68 | CGGGAGTGTC | 0.89727 ± 0.00075
69 | GATATTTTTC | 1.035 ± 0.0096

Row | Sequence | switch fluorescence ratio
70 | TTCTGGGACT | 0.999 ± 0.021
71 | TTTCCAGACT | 0.968 ± 0.019
72 | ATCAATGGGT | 0.979 ± 0.025
73 | AGCCGTGATG | 1.06 ± 0.048
74 | ATGAGTCGGA | 0.975 ± 0.055
75 | TGTGGGGAGG | 0.969 ± 0.027
76 | CTGGGGGGGA | 1.02 ± 0.022
77 | ATGGAAAGAA | 0.974 ± 0.038
78 | GGTTGCCATA | 0.944 ± 0.025
79 | GTTTTATAGG | 0.965 ± 0.021
80 | CTAACGCGCA | 1.11 ± 0.0043
81 | GGTTGACTTA | 1.03 ± 0.011
82 | TAGAACAGTT | 0.9982 ± 0.0013
83 | CAGCGGACCG | 1.02 ± 0.028
84 | TCACGGGAAT | 1.02 ± 0.055
85 | ACATAGATTA | 1.03 ± 0.016
86 | TGCGAGGCTT | 1.022 ± 0.0058
87 | AATACATGTA | 0.984 ± 0.013
88 | TTGAATGGTT | 0.994 ± 0.021
89 | AAGCGAGGTC | 1.05 ± 0.021
90 | CCTTTTCAGC | 1.12 ± 0.025
91 | AGAGACACGG | 1.03 ± 0.079
92 | ATCGTGGGTT | 0.97919 ± 0.00077

Row | Sequence | switch fluorescence ratio
93 | GCAAGATTTA | 1.01 ± 0.019
94 | AAATTGTTG | 1.022 ± 0.0087
95 | TTGGGACAAA | 1.05 ± 0.061
96 | TATATGTTTT | 0.968 ± 0.013
97 | CTGTAATATT | 1.13 ± 0.029
98 | TTTTAAGAT | 1.02 ± 0.029
99 | GATTATAATC | 1.01 ± 0.015
100 | GGGAATACTT | 1 ± 0.038
101 | TAGCTTCTCC | 1.34 ± 0.033
102 | AAATACCCAG | 1.04 ± 0.034
103 | AGGTACGGAG | 1.01 ± 0.019
104 | TGGGAGTTGG | 1.03 ± 0.012
105 | CAGGTCTTAA | 0.9719 ± 0.0054
106 | TATAAACCGC | 1.22 ± 0.11
107 | CACGCAAGTG | 1.03 ± 0.018
108 | GGTCCTTTGA | 1 ± 0.029
109 | GAGTCGGCGG | 0.9893 ± 0.0023
110 | TTTTAATCGT | 0.985 ± 0.063
111 | ATGTGGAATG | 0.994 ± 0.037
112 | TACAACGTGG | 0.991 ± 0.012
113 | TTTTTTGCGA | 1.06 ± 0.079
114 | TTACTTGTTT | 1 ± 0.023
115 | GTGTTTGTCA | 0.981 ± 0.017

Row | Sequence | switch fluorescence ratio
116 | TCGTTTCGGG | 0.985 ± 0.017
117 | ATCACTCACT | 1.18 ± 0.06
118 | CGGCGCCTGC | 1.08 ± 0.039
119 | GTTGGGGTAT | 1.06 ± 0.11
120 | AGTAGGGAGT | 0.9784 ± 0.0094
121 | ATATGTTGAA | 1.02 ± 0.027
122 | ACAATCCGGG | 1.01 ± 0.032
123 | TTAGTTGATA | 1.01 ± 0.018
124 | AAGTATTAGA | 0.964 ± 0.011
125 | GAGTTTGTAT | 0.961 ± 0.028
126 | CGCTAGGGGA | 1.07 ± 0.041
127 | ATAGGGATAG | 1.01 ± 0.047
128 | TCATTTTCCG | 0.996 ± 0.043
129 | GTTATGTCTG | 1.03 ± 0.065
130 | GGGGTTTGCC | 0.9678 ± 0.0086
131 | CTTGGTGGGG | 0.969 ± 0.031
132 | CTGCCTTGTT | 1 ± 0.015
133 | ATAGGGGTGC | 1.02 ± 0.042
134 | GGGGATTGAG | 0.973 ± 0.042
135 | TGTTAGTCTA | 0.9884 ± 0.0052
136 | TCGCATTGGT | 1.24 ± 0.037
137 | TTGCAGACTT | 1.05 ± 0.072
138 | TCGAAGAAGT | 0.997 ± 0.016

Row | Sequence | switch fluorescence ratio
139 | GGAGAAGAGT | 1.04 ± 0.015
140 | AGGGTATATC | 1.05 ± 0.03
141 | AAATGATAGC | 1.016 ± 0.0037
142 | TTTAATTGCA | 0.988 ± 0.038
143 | TCCAAATTTT | 1.02 ± 0.016
144 | TGTTTCAACT | 0.9843 ± 0.0045
145 | AATTCGTTAC | 1.63 ± 0.76
146 | CCCATTGTTT | 1.01 ± 0.022
147 | CATTGTGTAT | 0.975 ± 0.029
148 | GTTTTTATAT | 1.03 ± 0.015
149 | TTTGCTAG | 1.013 ± 0.0095
150 | TCGTTGCTAG | 0.982 ± 0.059
151 | CATGGGGGAG | 0.978 ± 0.035
152 | TTATATATAA | 1.01 ± 0.027
153 | AACTTTGACC | 1.034 ± 0.0014
154 | CATTTAACGT | 0.991 ± 0.0041
155 | GACCGTAATG | 1.05 ± 0.03
156 | TTGATAGGGG | 1.01 ± 0.031
157 | GGCTGGGGTG | 1.04 ± 0.071

Source: the supplement of paper PMC10126150
